Measurements from article PMC5290487.

Key:
[1] = biological target: MK2 (mitogen-activated protein kinase-activated protein kinase 2), endogenous in COS-1 cells; assay: co-immunoprecipitation (IP of endogenous MK2, western blot for PDE4A5), quantified; conditions: COS-1 cell lysates; parent: est. 100; read off a plot
[2] = biological target: MK2 (mitogen-activated protein kinase-activated protein kinase 2), endogenous in COS-1 cells; assay: as above; conditions: COS-1 cell lysates; parent: est. 100; read off a plot; remark: listed apart in the source

| Substance | percent of parent (% binding of MK2 in Wt IP) [1] | percent of parent (% binding of MK2 in Wt IP) [2] |
| --- | --- | --- |
| PDE4A5 (long PDE4A isoform), wild type (from UniProt P54748-1) F141A | 58 | – |
| PDE4A5 (long PDE4A isoform), wild type (from UniProt P54748-1) F141A; L142A; Y143A | 1.5 | 2 |
| PDE4A5 (long PDE4A isoform), wild type (from UniProt P54748-1) Y143A | 79 | – |
| PDE4A5 (long PDE4A isoform), wild type (from UniProt P54748-1) I654A; L655A; D656A | – | 88 |

Next, values leading:

| percent of parent (% binding of MK2 in Wt IP) [1] | percent of parent (% binding of MK2 in Wt IP) [2] | Substance |
| --- | --- | --- |
| 73 | – | PDE4A5 (long PDE4A isoform), wild type (from UniProt P54748-1) L142A |
| – | 63 | PDE4A5 (long PDE4A isoform), wild type (from UniProt P54748-1) F693A; Q694A; F695A |
| – | 67 | PDE4A5 (long PDE4A isoform), wild type (from UniProt P54748-1) T698A; L699A; E700A; E701A |
| – | 80 | PDE4A5 (long PDE4A isoform), wild type (from UniProt P54748-1) W664A; Y665A; H666A; S667A |
